From US20030092037A1, “Elk1 phosphorylation related gene” (priority 2001, published 2003)
Positions count from the first letter of the chain named.

B1: 150 (protein, listed as Homo sapiens)
chain: MSSGKSARYNRFSGGPSNLPTPDVTTGTRMETTFGPAFSAVTTITKADGTSTYKQHCRTPSSSSTLAYSPRDEEDSMPPISTPRRSDSAISVRSLHSESSMSLRSTFSLPEEEEEPEPLVFAEQPSVKLCCQLCCSVFKDPVITTCGHTFCRRCALKSEKCPVDNVKLTVVVNNIAVAEQIGELFIHCRHGCRVAGSGKPPIFEVDPRGCPFTIKLSARKDHEGSCDYRPVRCPNNPSCPPLLRMNLEAHLKECEHIKCPHSKYGCTFIGNQDTYETHLETCRFEGLKEFLQQTDDRFHEMHVALAQKDQEIAFLRSMLGKLSEKIDQLEKSLELKFDVLDENQSKLSEDLMEFRRDASMLNDELSHINARLNMGILGSYDPQQIFKCKGTFVGHQGPVWCLCVYSMGDLLFSGSSDKTIKVWDTCTTYKCQKTLEGHDGIVLALCIQGCKLYSGSADCTIIVWDIQNLQKVNTIRAHDNPVCTLVSSHNVLFSGSLKAIKVWDIVGTELKLKKELTGLNHWVRALVAAQSYLYSGSYQTIKIWDIRTLDCIHVLQTSGGSVYSIAVTNHHIVCGTYENLIHVWDIESKEQVRTLTGHVGTVYALAVISTPDQTKVFSASYDRSLRVWSMDNMICTQTLLRHQGSVTALAVSRGRLFSGAVDSTVKVWTC
B2: 152 (protein, listed as Homo sapiens)
chain: MAPAGCCCCCCFWGGAVAAAGAARRVLLLLLLGVLSAGLRPGALATEHYSPLSLLKQELQHRQQQEAPAGGGGCSPQSGDWGDQYSAECGESSFLNFHDSDCEPKGSSPCDSLLSLNTEKILSQAKSIAEQKRFPFATDNDSTNEELAIAYVLIGSGLYDEAIRHFSTMLQEEPDLVSAIYGRGIAYGKKGLHDIKNAELALFELSRVITLEPDRPEVFEQRAEILSPLGRINEAVNDLTKAIQLQPSARLYRHRGTLYFISEDYATAHEDFQQSLELNKNQPIAMLYKGLTFFHRGLLKEAIESFKEALKQKVDFIDAYKSLGQAYRELGNFEAATESFQKALLLNQNHVQTLQLRGMMLYHHGSLQEALKNFKRCLQLEPYNEVCQYMKGLSHVAMGQFYEGIKAQTKVMLNDPLPGQKASPEYLKVKYLREYSRHLHAHLDTPLTEYNIDVDLPGSFKDHWAKNLPFLIEDYEEQPGLQPHIKDVLHQNFESYKPEVQELICVADRLGSLMQYETPGFLPNKRIHRAMGLAALEVMQAVQRTWTNSKVRMNGKTRLMQWRDMFDIAVKWRRIADPDQPVLWLDQMPARSLSRGFNNHINLIRGQVINMRYLEYFEKILHFIKDRILVYHGANNPKGLLEVREALEKVHKVEDLLPIMKQFNTKTKDGFTVNTKVPSLKDQGKEYDGFTITITGDKVGNILFSVETQTTEERTQLYHAEIDALYKDLTAKGKVLILSSEFGEADAVCNLILSLVYYFYNLMPLSRGSSVIAYSVIVGALMASGKEVAGKIPKGKLVDFEAMTAPGSEAFSKVAKSWMNLKSISPSYKTLPSVSETFPTLRSMIEVLNTDSSPRCLKKL
B3: 154 (protein, listed as Homo sapiens)
chain: MAPAGCCCCCCFWGGAVAAAGAARRVLLLLLLGVLSARLRPGALATEHYSPLSLLKQELQHRQQQEAPAGGGGCSPQSGDWGDQYSAECGESSFLNFHDSDCEPKGSSPCDSLLSLNTEKILSQAKSIAEQKRFPFATDNDSTNEELAIAYVLIGSGLYDEAIRHFSTMLQILSPLGRINEAVNDLTKAIQLQPSARLYRHRGTLYFISEDYATAHEDFQQSLELNKNQPIAMLYKGLTFFHRGLLKEAIESFKEALKQKVDFIDAYKSLGQAYRELGNFEAATESFQKALLLNQNHVQTLQLRGMMLYHHGSLQEALKNFKRCLQLEPYNEVCQYMKGLSHVAMGQFYEGIKAQTKVMLNDPLPGQKASPEYLKVKYLREYSRYLHAHLDTPLTEYNIDVDLPGSFKDHWAKNLPFLIEDYEEQPGLQPHIKDVLHQNFESYKPEVQELICVADRLGSLMQYETPGFLPNKRIHRAMGLAALEVMQAVQRTWTNSKVRMNGKTRLMQWRDMFDIAVKWRRIADPDQPVLWLDQMPARSLSRGFNNHINLIRGQVINMRYLEYFEKILHFIKDRILVYHGANNPKGLLEVREALEKVHKVEDLLPIMKFNTKTKDGFTVNTKVPSLKDQGKEYDGFTITITGDKVGNILFSVETQTTEERTQLYHAEIDALYKDLTAKGKVLILSSEFGEADAVCNLILSLVYYFYNLMPLSRGSSVIAYSVIVGALMASGKEVAGKIPKGKLVDFEAMTAPGSEAFSKVAKSWMNLKSISPSYKTLPSVSETFPTLRSMIEVLNTDSSPRCLKKL
B4: 146 (protein, listed as Homo sapiens)
chain: MNHIVQTFSPVNSGQPPNYEMLKEEQEVAMLGAPHNPAPPTSTVIHIRSETSVPDHVVWSLFNTLFMNTCCLGFIAFAYSVKSRDRKMVGDVTGAQAYASTAKCLNIWALILGIFMTILLVIIPVLVVQAQR
B5: 148 (protein, listed as Homo sapiens)
chain: B4 chain with V121I
B6: 6 (protein, listed as Homo sapiens)
chain: MEGPGLGSQCRNHSHGPHPPGFGRYGICAHENKELANAREALPLIEDSSNCDIVKATQYGIFERCKELVEAGYDVRQPDKENVSLLHWAAINNRLDLVKFYISKGAVVDQLGGDLNSTPLHWAIRQGHLPMVILLLQHGADPTLIDGEGFSSIHLAVLFQHMPIIAYLISKGQSVNMTDVNGQTPLMLSAHKVIGPEPTGFLLKFNPSLNVVDKIHQNTPLHWAVAAGNVNAVDKLLEAGSSLDIQNVKGETPLDMALQNKNQLIIHMLKTEAKMRANQKFRLWRWLQKCELFLLLMLSVITMWAIGYILDFNSDSWLLKGCLLVTLFFLTSLFPRFLVGYKNLVYLPTAFLLSSVFWIFMTWFILFFPDLAGAPFYFSFIFSIVAFLYFFYKTWATDPGFTKASEEEKKVNIITLAETGSLDFRTFCTSCLIRKPLRSLHCHVCNCCVARYDQHCLWTGRCIGFGNHHYYIFFLFFLSMVCGWIIYGSFIYLSSHCATTFKEDGLWTYLNQIVACSPWVLYILMLATFHFSWSTFLLLNQLFQIAFLGLTSHERISLQKQSKHMKQTLSLRKTPYNLGFMQNLADFFQCGCFGLVKPCVVDWTSQYTMVFHPAREKVLRSV
B7: 122 (protein, listed as Mus musculus)
chain: MAPAGCGCGCSGSLGAAVVRPLLLLLGALACVRATEHYSPLSLLKQELQHRQQQEAPAGGGCPQSGDWADQYPECESSFLNFHESDCELRGSAPCDSLLSLNTEKILSQAKSIAEQKRFPFATDNDSTNEELAIAYVLVGSGLYDEAIRHFSTMLQEAIEAFKEALKQKVDFIDAYKSLGQAYRELGNFDAATESFQKALLLNQNHVQTQQLRGMMLYHHGSLQEALKNFKRCLQLEPYNELCQYMKGLSHVAMGQFYEGIKAQTKVMLNDPLPGQKASPEYLRVKYLREYSRYLHAHLDTPLTEYNIDSDLPGSFKDHWAKNLPFLIDGYEEQPGLQPHIRDVLHQNFEGYKPEVQELICVADRLGSLMQYETPGFLPNKRIHRAMGLAALEVMQAVHRTWTNSKVRMNGKTRLLQWRDMFDIAVKWRRIADPDQPVLWLDQMPAPSLSRGFNNHINLIRGQVINMRYLEYFEKILHFIKDRILVYHGANNPKGLLEVREALEKVHKVEDLLPIMKQFNTKTKDGFTVNTKVPSLKDQGKEYDGFTITITGDKVGNILFSVETQTTEERTQLYHAEIDALYKDLTAKGKVLTLSAEFGEADAVCNLILSLVYYFYNLMPLSRGSSVIAYSVIVGALMASGKEVAGKIPKGKLVDFEAMTAPGSEAFSKIAKSWMNLKSISPSYKTLPSVSETFPTLRSMIEVLNTDSTPRCLKKL
B8: 132 (protein, listed as Mus musculus)
chain: MAGRTMQAARCPTDELSLSNCAVVNEKDFQSGQHVMVRTSPNHKHIFTLRTHPSVVPGCIAFSLPQRKWAGLSIGQDIEVALYSFDKAKQCIGTMTIEIDFLQKKNIDSNPYDTDKMAAEFIQQFNNQAFSVGQQLVFSFNDKLFGLLVKDIEAMDPSILKGEPASGKRQKIEVGLVVGNSQVAFEKAENSSLNLIGKAKTKENRQSIINPDWNFEKMGIGGLDKGFSDIFRRAFASRVFPPEIVEQMGCKHVRGILLYGPPGCGKTLLARQIGKMLNAREPKVVNGPEILNKYVGESEANIRKLFADAEEEQRRLGANSGLHIIIFDEIDAICKQRGSMAGSTGVHDTVVNQLLSKIDGVEQLNNILVIGMTNRPDLIDEALLRPGRLEVKMEIGLPDEKGRLQILHIHTARMRGHQLLSADVDIKELAVETKNFSGAELEGLVRAAQSTAMNRHIKASTKVEVDMEKAESLQVTRGDFLASLENDIKPAFGTNQEDYASYIMNGIIKWGDPVTRVLDDGELLVQQTKNSDRTPLVSVLLEGPPHSGKTALAAKIAEESNFPFIKICSPDKMIGFSETAKCQAMKKIFDDAYKSQLSCVVVDDIERLLDYVPIGPRFSNLVLQALLVLLKKAPPQGRKLLIIGTTSRKDVLQEMEMLNAFSTTIHVPNIATGEQLLEALELLGNFKDKERTTIAQQVKGKKVWIGIKKLLMLIEMSLQMDPEYRVRKFLALMREEGASPLDFD

Tested on: MAP kinase cascade activation
Assay: Reporter activity reflecting MAP kinase cascade activation, corrected using an internal control (Elk1-GAL4 luciferase reporter in 293-EBNA cells)
Assay type: cell-based, human
Conditions: for Reporter activity corrected with internal control, as a factor of null vector (S/B value): 293-EBNA cells, 24 hours; for Dependence of corrected reporter activity on amount of expression plasmid: plasmid 12.5 ng, 25 ng, 50 ng and 100 ng
Description: (in the presence of 5% CO2). […] The method used for introduction was in accordance with the attached protocol. After culturing for 24 hours at 37° C., reporter activity (firefly luciferase acitivity), which reflects MAP kinase cascade activation, and reporter activity being the internal control (sea pansy luciferase) were measured using Picagene Dual (purchased from Toyo Ink Manufacturing) in accordance with the manufacturer's instructions.
Luciferase activity was measured with Perkin Elmer's Wallac ARVOTMST 1420 MULTILABEL COUNTER.
Reporter activity where an expression plasmid comprising the above gene was introduced, which reflects MAP kinase cascade activation corrected with internal control reporter activity, is shown in Table 1, which is expressed as a factor of the same reporter activity where a null vector was introduced (S/B value).

[1] = 12.5 ng/well expression plasmid

| Molecule | Reporter activity corrected with internal control, as a factor of null vector (S/B value) [1] | Reporter activity corrected with internal control, as a factor of null vector (S/B value) (25 ng/well expression plasmid) | Reporter activity corrected with internal control, as a factor of null vector (S/B value) (50 ng/well expression plasmid) | Dependence of corrected reporter activity on amount of expression plasmid | Reporter activity corrected with internal control, as a factor of null vector (S/B value) (100 ng/well expression plasmid) |
| --- | --- | --- | --- | --- | --- |
| B1 | 6.7 | 2.8 | 1.7 | increases that were dependent on the amount of expression plasmid | – |
| B2 | – | – | – | increases that were dependent on the amount of expression plasmid | – |
| B3 | – | – | – | increases that were dependent on the amount of expression plasmid | – |
| B4 | – | 3.5 | 5.6 | increases that were dependent on the amount of expression plasmid | 8.8 |
| B5 | – | 1.6 | 3.4 | increases that were dependent on the amount of expression plasmid | 5.0 |
| B6 | – | 2.1 | 2.4 | increases that were dependent on the amount of expression plasmid | 2.9 |
| B7 | 1.8 | 2.9 | 6.8 | increases that were dependent on the amount of expression plasmid | – |
| B8 | 5.6 | 10.1 | 16.6 | increases that were dependent on the amount of expression plasmid | – |
